The results in this text go back to patent US20260034194A1, “PHARMACEUTICAL COMPOSITIONS AND METHODS OF TREATING PSP” (priority 2022, published 2026).

A short description of series [1]: Thermofluor (TF) assay of STX binding. The settings on record: 1.1 μM Sxph, 0-20 μM STX; ΔTm at 20 μM toxin. (In general: DSF heats the sample and reads unfolding from a dye or from intrinsic fluorescence.)
The format of series [2] is binding. The settings on record: ITC, STX, 25° C. On the procedure:
. […] In almost all mutants, binding affinity loss correlated with a reduction in enthalpy, consistent with a loss of interactions (Table S2). […]. […] Together, these three assays (FIGS. 1E and G) provide a robust and versatile suite of options for characterizing STX:Sxph interactions.
ITC measurements were performed at 25° C. using a MicroCal PEAQ-ITC calorimeter (Malvern Panalytical). […]. This STX stock was diluted with the SEC buffer to prepare 100 μM or 300 μM STX solutions having a final buffer composition of 135 mM NaCl, 9 mM HEPES, pH 7.4. […]. The calorimetric experiment settings were: reference power, 5 μcal/s; spacing between injections, 150 s; stir speed 750 rpm; and feedback mode, high. Data were analyzed using MicroCal PEAQ-ITC Analysis Software (Malvern Panalytical) using a single binding site model. The heat of dilution from titrations of 100 μM STX in 135 mM NaCl, 9 mM HEPES, pH 7.4 into 135 mM NaCl, 9 mM HEPES, pH 7.4 was subtracted from each experiment to correct the baseline.

Series [3] is classed as binding. The settings on record: for ΔΔG: ΔΔG = RT ln(Kd mutant or XSxph/Kd RcSxph), T = 298K, FP with F-STX.
Series [4] deals with Phyllobates terribilis NaV1.4 (PtNaV1.4). Briefly: Two-electrode voltage clamp: Sxph rescue of PtNaV1.4 from STX block in Xenopus oocytes. In kind it is cell-based. The note with it: [Sxph]:[STX] ratio, 100 nM STX, PtNaV1.4 in Xenopus oocytes.
Where [5] appears, read: FP, 1 nM F-STX, 25° C., errors S.D.

Numbering of substitutions follows the chain as printed. Numbers in names are those of the source. Where two headings read alike, the source gives them in different places.

B1: NpSxph: Nanorana parkeri (High Himalaya frog) saxiphilin, SEQ ID NO: 2 (protein, listed as Nanorana parkeri)
chain: MALTFHTALYFTIVGLSFAASDARHVQWCTISHLEQKKCNDLVGSCNVPDITLACVYRSSTENCMAAIKDGQADAMFLDSGDVYKASLDHYNLKPIIAEPYSLHRELTKCLKHRQESLGGDKMVKGRYIPQCDEKGNYHPVQCHASTGYCWCVNANGEKIEGTNTTPVQTPPTCPSQVLTKCLKERQEALGGKRIAIGRYIPQCDEQGNYRPMQCHGSTGYCWCVNAIGEKIEGTNTPPGNTQPTCQSHDWDTCHYAVAVVKNSSTFQFGQLKGKRSCHSGLSKTDGWNAPVNVFVEKKLLPWDGLAKGSIERAVSKFFSASCIPGATETNLCKQCIGEEEKKCKSSHDEPYYGDHGAFRCLQEDKGDVAFLKNTALPDEHSGVYELLCPDNTRKPLNKYKECNLGKVPADAVVTRKAGDKTKDINDFLLEAQKKKCKLFGSPHGKDLMFDDSTTHLAPLPSEIDAFFFLGVKWYNAMKALTEDVKLPSKNKVRWCTINKPEMMKCKDWAAVSGGAIACTEASCPEHCVKQILKGEADAVTLDVQYMYMALMCGLLPAVEEYPNKDDFHPCQIPGSTIKDFGTKRAVALVKKSNKDIKWNNLKGKKSCHTHVGDIPGWVIPAGLISNQNDNIDIESFFGESCAPGSDTNSKLCKLCIGDPENPKASTRCSLSDKEAYYGNEGAFRCLVEKGDVAFVPHTVVFANTDGKNPAEWAKDLKSEDFEILCLDGSRAPVTNYRGCNLSGLPPRAIVTREESVSDVVRILINQQSLYGRNGFEKDMFQMFSSAKGQNLLFNDETQCLIEFDRQPKDIMEDYFGVRYYTAVYSASRSAVPSELIPACTFKHC
In general, Kd refers to the free concentration of one partner at which half of the binding sites on the other are occupied at equilibrium, for simple one-to-one binding. A high value points to a looser complex. Consider B1, for which the “ΔTm (STX-induced change of melting temperature)” value in series [1] is 3.6 °C. For the same molecule, in series [2], the affinity, expressed as Kd, was 2.5 ± 0.1 nM; the “ΔG” value is -11.8 ± 0.1 kcal/mol; the “ΔH” value was -18.7 ± 0.2 kcal/mol; the “ΔS (cal mol^−1 K^−1)” value is recorded as −23.2 ± 0.8 cal mol^−1 K^−1. Further, the “ΔH” value in series [2] (listed as NpSxph WT) was -18.7 ± 0.2 kcal/mol. Further, the “STX/F-STX affinity compared with RcSxph” value in series [3] (FP) is “enhanced affinity”. In series [3] (setting [5]), the Kd worked out at 0.5 ± 0.3 nM. Moreover, the “ΔΔG” value in series [3] is -1.60 kcal/mol.

B2: I782A: RcSxph STX binding pocket mutant I782A (protein)
chain: MAPTFQTALFFTIISLSFAAPNAKQVRWCAISDLEQKKCNDLVGSCNVPDITLVCVLRSSTEDCMTAIKDGQADAMFLDSGEVYEASKDPYNLKPIIAEPYSSNRDLQKCLKERQQALAKKMIGHYIPQCDEKGNYQPQQCHGSTGHCWCVNAMGEKISGTNTPPGQTRATCERHELPKCLKERQVALGGDEKVLGRFVPQCDEKGNYEPQQFHGSTGYSWCVNAIGEEIAGTKTPPGKIPATCQKHDLVTTCHYAVAMVKKSSAFQFNQLKGKRSCHSGVSKTDGWKALVTVLVEKKLLSWDGPAKESIQRAMSKFFSVSCIPGATQTNLCKQCKGEEGKNCKNSHDEPYYGNYGAFRCLKEDMGDVAFLRSTALSDEHSEVYELLCPDNTRKPLNKYKECNLGTVPAGTVVTRKISDKTEDINNFLMEAQKRQCKLFSSAHGKDLMFDDSTLQLALLSSEVDAFLYLGVKLFHAMKALTGDAHLPSKNKVRWCTINKLEKMKCDDWSAVSGGAIACTEASCPKGCVKQILKGEADAVKLEVQYMYEALMCGLLPAVEEYHNKDDFGPCKTPGSPYTDFGTLRAVALVKKSNKDINWNNIKGKKSCHTGVGDIAGWVIPVSLIRRQNDNSDIDSFFGESCAPGSDTKSNLCKLCIGDPKNSAANTKCSLSDKEAYYGNQGAFRCLVEKGDVAFVPHTVVFENTDGKNPAVWAKNLKSEDFELLCLDGSRAPVSNYKSCKLSGIPPPAIVTREESISDVVRIVANQQSLYGRKGFEKDMFQLFSSNKGNNLLFNDNTQCLATFDRQPKDIMEDYFGKPYYTTVYGASRSAMSSELISACTIKHC
With B2, the “ΔTm (STX-induced change of melting temperature)” value in series [1] is on record as “DTm increases relative to wild-type”. The Kd in series [3] (setting [5]) was 3 ± 0.8 nM. For the same molecule, the “ΔΔG” value in series [3] is -0.53 kcal/mol. Further, the “Effective Rescue Ratio50 (ERR50)” value in series [4] is 0.87±0.02.

B3: F561A: RcSxph STX binding pocket mutant F561A (protein)
chain: B2 chain with F580A, A801I
As to B3, in series [2], the Kd was 13.4 ± 1.4 nM, the “ΔG” value was -10.8 ± 0.1 kcal/mol, the “ΔH” value is -12.7 ± 0.2 kcal/mol and the “ΔS (cal mol^−1 K^−1)” value is listed as −6.6 ± 0.9 cal mol^−1 K^−1. The Kd in series [3] (setting [5]) is 16.8 ± 6 nM. Besides, the “ΔΔG” value in series [3] was 0.48 kcal/mol.

B4: E540A: RcSxph STX binding pocket mutant E540A (protein)
chain: B2 chain with E559A, A801I
Turning to B4, the “ΔTm (STX-induced change of melting temperature)” value in series [1] was “complete loss of the thermal shift”. In addition, the Kd in series [3] (setting [5]) is 15300 ± 4130 nM; in series [3] (FP, F-STX) it was 15300 nM. In series [3], the “ΔΔG” value turned out to be 4.52 kcal/mol. In addition, in series [4], the “Effective Rescue Ratio50 (ERR50)” value is “eliminated”.

B5: P727A: RcSxph STX binding pocket mutant P727A (protein)
chain: B2 chain with P746A, A801I
With B5, in series [2], the Kd was 31.3 ± 11.6 nM, the “ΔG” value is -10.3 ± 0.2 kcal/mol, the “ΔH” value is -11.5 ± 0.0 kcal/mol and the “ΔS (cal mol^−1 K^−1)” value is reported as −4.2 ± 0.9 cal mol^−1 K^−1. Moreover, the Kd in series [3] (setting [5]) was found to be 56.9 ± 12.1 nM. Further, the “ΔΔG” value in series [3] is 1.21 kcal/mol. The “Effective Rescue Ratio50 (ERR50)” value in series [4] is above 4.

B6: D794A: RcSxph STX binding pocket mutant D794A (protein)
chain: B2 chain with A801I, D813A
As to B6, the “ΔTm (STX-induced change of melting temperature)” value in series [1] is on record as “complete loss of the thermal shift”. The molecule also showed a Kd in series [3] (setting [5]) of 13200 ± 6870 nM. In series [3], the “ΔΔG” value was found to be 4.43 kcal/mol.

B7: Y558I: RcSxph STX binding pocket mutant Y558I (protein)
chain: B2 chain with Y577I, A801I
B7: in series [2], the Kd was found to be 1.1 ± 0.5 nM, the “ΔG” value was -12.2 ± 0.3 kcal/mol, the “ΔH” value was -15.5 ± 0.3 kcal/mol and the “ΔS (cal mol^−1 K^−1)” value is recorded as −10.5 ± 0.6 cal mol^−1 K^−1. In series [3] (setting [5]), this molecule had a Kd of 1.2 ± 0.2 nM. In series [3], the “ΔΔG” value was -1.07 kcal/mol. Moreover, the “Effective Rescue Ratio50 (ERR50)” value in series [4] stood at 0.81±0.01.

B8: Y558A: RcSxph STX binding pocket mutant Y558A (protein)
chain: B2 chain with Y577A, A801I
For the molecule B8, in series [2], the Kd amounted to 1.2 ± 0.4 nM, the “ΔG” value was -12.2 ± 0.2 kcal/mol, the “ΔH” value is -15.3 ± 0.0 kcal/mol and the “ΔS (cal mol^−1 K^−1)” value is listed as −11.1 ± 1.1 cal mol^−1 K^−1. The molecule also registered a Kd in series [3] (setting [5]) of 1.4 ± 0.3 nM. Also, in series [3], the “ΔΔG” value was -1.00 kcal/mol.

B9: D785N: RcSxph STX binding pocket mutant D785N (protein)
chain: B2 chain with A801I, D804N
For the molecule B9, in series [1], the “ΔTm (STX-induced change of melting temperature)” value is recorded as “DTm increases relative to wild-type”. This molecule also gave a Kd in series [3] (setting [5]) of 4.4 ± 0.6 nM. Besides, in series [3], the “ΔΔG” value was -0.30 kcal/mol.
